Test results reported in patent US20100093619A1.

Key:
Experiment in all cases: cell-based or functional assay
[1] = molecular target: cysteine-like cathepsin-L protease activity from Leptinotarsa decemlineata (Colorado potato beetle) gut extracts (Leptinotarsa decemlineata)
[2] = molecular target: cysteine-like cathepsin-B protease activity from Leptinotarsa decemlineata (Colorado potato beetle) gut extracts (Leptinotarsa decemlineata)
[3] = molecular target: serine-like chymotrypsin protease activity from Sesamia nonagrioides (Mediterranean corn borer) gut extracts (Sesamia nonagrioides)
[4] = molecular target: cysteine-like cathepsin-L protease activity from Acyrthosiphon pisum (pea aphid) extracts (Acyrthosiphon pisum)
[5] = molecular target: serine-like trypsin protease activity from Spodoptera littoralis (cotton leafworm) gut extracts (Spodoptera littoralis)
[6] = molecular target: cysteine-like cathepsin-B protease activity from Acyrthosiphon pisum (pea aphid) extracts (Acyrthosiphon pisum)
[7] = molecular target: cysteine-like cathepsin-L protease activity from Bemisia tabaci (sweetpotato whitefly) extracts (Bemisia tabaci)
[8] = molecular target: cysteine-like cathepsin-L protease activity from Tribolium castaneum (red flour beetle) extracts (Tribolium castaneum)
[9] = molecular target: cysteine-like cathepsin-L protease activity from Tetranychus urticae (spider mite) extracts (Tetranychus urticae)
[10] = molecular target: serine-like chymotrypsin protease activity from Spodoptera littoralis (cotton leafworm) gut extracts (Spodoptera littoralis)
[11] = molecular target: serine-like trypsin protease activity from Ostrinia nubilalis (European corn borer) gut extracts (Ostrinia nubilalis)
[12] = molecular target: serine-like trypsin protease activity from Sesamia nonagrioides (Mediterranean corn borer) gut extracts (Sesamia nonagrioides)

B1: recombinant AtSerpin1 (Arabidopsis thaliana serpin-1, At1g47710), HIS6-tagged (protein, not shown: small tags and cut ends)
chain: MDVRESISLQNQVSMNLAKHVITTVSQNSNVIFSPASINVVLSIIAAGSAGATKDQILSFLKFSSTDQLNSFSSEIVSAVLADGSANGGPKLSVANGAWIDKSLSFKPSFKQLLEDSYKAASNQADFQSKAVEVIAEVNSWAEKETNGLITEVLPEGSADSMTKLIFANALYFKGTWNEKFDESLTQEGEFHLLDGNKVTAPFMTSKKKQYVSAYDGFKVLGLPYLQGQDKRQFSMYFYLPDANNGLSDLLDKIVSTPGFLDNHIPRRQVKVREFKIPKFKFSFGFDASNVLKGLGLTSPFSGEEGLTEMVESPEMGKNLCVSNIFHKACIEVNEEGTEAAAASAGVIKLRGLLMEEDEIDFVADHPFLLVVTENITGVVLFIGQVVDPLH
B1 gave a % Inhibition of cathepsin L activity at 1.25 µM AtSerpin1 [1] of 4%, a % Inhibition of cathepsin L activity at 5 µM AtSerpin1 [1] of 34% and a % Inhibition of cathepsin L activity at 10 µM AtSerpin1 [1] of 48%. For the same binder, the concentration of AtSerpin1 for 50% inhibition of cathepsin-L activity (fluorometric substrate, FIG. 12) [1] was > 10 µM, the % Inhibition of cathepsin B activity at 1.25 µM AtSerpin1 [2] was 40% and the % Inhibition of cathepsin B activity at 5 µM AtSerpin1 [2] was 47%. For the same binder, the % Inhibition of cathepsin B activity at 10 µM AtSerpin1 [2] was 46%, the concentration of AtSerpin1 for 50% inhibition of cathepsin-B activity (fluorometric substrate, FIG. 12) [2] was > 10 µM and the concentration of AtSerpin1 for ≧50% inhibition of chymotrypsin activity (FIG. 11) [3] was > 10 µM. For the same binder, the % Inhibition of cathepsin L activity at 1.25 µM AtSerpin1 [4] was 42%, the % Inhibition of cathepsin L activity at 5 µM AtSerpin1 [4] was 42% and the % Inhibition of cathepsin L activity at 10 µM AtSerpin1 [4] was 39%. For the same binder, the plateau of % inhibition of cathepsin-L activity (FIG. 14) [4] was 60%, the % Inhibition of trypsin activity at 1.25 µM AtSerpin1 [5] was 52% and the % Inhibition of trypsin activity at 5 µM AtSerpin1 [5] was 83%. For the same binder, the % Inhibition of trypsin activity at 10 µM AtSerpin1 [5] was 90%, the concentration of AtSerpin1 for 50% inhibition of trypsin activity (fluorometric substrate, FIG. 10) [5] was 1 µM and the % Inhibition of cathepsin B activity at 1.25 µM AtSerpin1 [6] was 50%. It also gave a % Inhibition of cathepsin B activity at 5 µM AtSerpin1 [6] of 55%, a % Inhibition of cathepsin B activity at 10 µM AtSerpin1 [6] of 55% and a concentration of AtSerpin1 for 50% inhibition of cathepsin-B activity (FIG. 14) [6] of 1 µM. It also gave a % inhibition of cathepsin-L activity at 20 µM AtSerpin1 (FIG. 15) [7] of 45%, an IC50 of inhibition of cathepsin-L activity (FIG. 13) [8] of 4 µM and a concentration of AtSerpin1 for 50% inhibition of cathepsin-L activity (FIG. 16) [9] of 2 µM. For the same binder, the % Inhibition of chymotrypsin activity at 1.25 µM AtSerpin1 [10] was 10%, the % Inhibition of chymotrypsin activity at 5 µM AtSerpin1 [10] was 31% and the % Inhibition of chymotrypsin activity at 10 µM AtSerpin1 [10] was 40%. For the same binder, the concentration of AtSerpin1 for 50% inhibition of chymotrypsin activity (FIG. 10) [10] was 10 to 20 µM, the % Inhibition of trypsin activity at 2 µM AtSerpin1 [11] was 28% and the % Inhibition of trypsin activity at 1.25 µM AtSerpin1 [12] was 90%. The % Inhibition of trypsin activity at 5 µM AtSerpin1 [12] was 97%, the % Inhibition of trypsin activity at 10 µM AtSerpin1 [12] was 98% and the concentration of AtSerpin1 for 50% inhibition of trypsin activity (FIG. 11) [12] was 0.1 µM.
